{"source": "the DeepSol protein solubility set", "data": [{"assay": "soluble on expression in E. coli; label from the status in PepcDB or PDB records", "values": [{"sequence": "MFRVGILTVSDKGFRGERQDTTHLAIREVLAGGPFEVAAYELVPDEPPMIKKVLRLWADREGLDLILTNGGTGLAPRDRTPEATRELLDREVPGLAELMRLVGLRKTPMAALSRGVAGVRGRTLILNLPGSPKGARESLEAVLPVLPHALSLVTGKPWKEGHHE", "soluble on expression in E. coli": "soluble"}, {"sequence": "GEDKKGGTKPSNEAALTKTENLDFRLSFNKIKVTTDQNHFSGGTSIEQLKQWFGDPNKSEQRNAGNITLDSYTWVKDGAVINAQLYKNSTVARSISNFSFSREAKIGKEDYDELKIGESYKKIVEKLGEPDVLSQSMSSDKEEMQTVWSSGIKTKSSSATIELYFENGLLKNKTQKDLE", "soluble on expression in E. coli": "soluble"}, {"sequence": "MGNILIVKLSRRELSYLLSVKKYNDEGKPAKLSWISKDLNVSVASAYEEISHLESKGFLKKSDKGIFITDEGKKAIDSLLRAHRVIETFLVKIGLSPDQACNYTKQFDYSVPDEVIERIYEYLGKPEKCPHGENIPY", "soluble on expression in E. coli": "soluble"}, {"sequence": "GYIVDMSKWNGSPDWDTAKGQLDLVIARVQDGSNYVDPVYKDYVAAMKARNIPFGSYAFCRFVSVEDAKVEARDFWNRGDKDSLFWVADVEVTTMSDMRAGTQAFIDELYRLGAKKVGLYVGHHKYEEFGAAQIKCDFTWIPRYGAKPAYPCDLWQYDEYGQVPGIGKCDLNRLNGDKSLDWFTGKGEE", "soluble on expression in E. coli": "soluble"}, {"sequence": "PHLAFFAFAGALGFAGWRQSKKPVQDTQIEQVEALSQAMQEEDTPLTWDDIPHVHTLSLALGYRLVHLVNKDQGAPLSQRIRGVRRNLSEQVGFLLPEVRIRDNLSLKPNQYTISLNGEVIEQGFIEPERLMAIAVGDTYGEIDGILGSDPAYQLPAVWIEHQDKAKALNMGYQVVDDGTVIATHISKIMKTNLAELFTHDDVEAMTQRLTQQAPKLAEALAAALNPAQQLKVYRQLLLDQVPLKDIRTIANTMLESSENTKDPILLAADVRCALKRTLVNLIAGQKPELNVYALSDELEQMLLTSLQQAQASGTVVLDSFPIEPNILGQFQQNLPLIRQQLKQQGLPPILLVMPQLRPLLARYARTFTQGLAVLSYNEIPENKQINVVGNLG", "soluble on expression in E. coli": "not soluble"}, {"sequence": "KKAQLIVAGIGPGSPEDITPAVIQAVKNSDVVIGYKYYFQFIEPYLEPGTECIDTGMKREKARAEQAFELAEQGKTVCVISSGDAGIYGMAPLVYEMKRERGSRVEIEVLPGIS", "soluble on expression in E. coli": "not soluble"}, {"sequence": "MFLSVVTVAFRNYEGVVKTWRSLRNLARDPGLSFEWIVVDGGSEDGTREFLQKRHGEFNLRFISEKDRGIYDAMNKGIALAQGRYTLFLNSGDAFHDDAALFVRQLARQKGEAMYIGDALLDFGGGHKIRRKAKPGYYIYHSLPASHQAIFFPTAALKKYPYDLQYHVSSDYALAARLYKAGYPFRRINGLVSEFSMGGVSTSNNLELCQDAKNVQRKILRVPGFWAQLSYLLRLKTTGKTKARYNKVLEHHHHHH", "soluble on expression in E. coli": "not soluble"}, {"sequence": "MDHQFGYGVEVTGLSPSVTHNDLIDFFSFSGTIQDIDIVRSGEQACTAYVMFKDSYSQETAVLLTGATILDQRVCITRWGQHHEEFDFWNATSRGFEDESDSQHYAQRSEFNAGEAVTKAQEVVKIMLATGFVLGKDALSKAKAFDESHGVSAAAVARVSQLEQRIGLTDKIFTGLEAVRMTDQRYHVSDTAKSAVFATGRTAAAAATSVVNSSYFSSGALWLSGALERAAKAASDLGTRGSRQ", "soluble on expression in E. coli": "soluble"}, {"sequence": "MPTPRRSGRVIVYTGDGKGKTTAALGLALRAVGRGMNVAVLQFLKSPERTYGEQLALERLGVDVRQLGAGFTWTKTPDIHREALKRAWAVAKEYVYSGRYDMIVLDELNNVLAIDRFPVEDIVSVSEVLELIRTRPPSLHLVITGRAARPELMAAADIVTEMKLIKHDYEQGRTAMKGIEF", "soluble on expression in E. coli": "soluble"}, {"sequence": "MGSDKIHHHHHHMIKLILSAPVPAMAVAFEHSFQNTENVEIIPGPFETIPEFDCMVSAANSFGLMDGGVDAAITAYFGPQLQERVQQHILREYLGEQPVGTAFVIETGNSKYPWLVHAPTMRVPLIIDGTDAVYNATRAALLAIFQHNKSAGEDRKIKSVVFPAMGAGCGQVSPGSVARQMKLAWDGFINCTTEINWQYASARQNAVFSTTAYCPSKALCPNARTEYIGFGDYRTYCKKSGNTCISPRHQVDDIYIGAHSHAVFLSPNSHGKHLKPEYLSGVKNDV", "soluble on expression in E. coli": "not soluble"}, {"sequence": "MSLDTFKNKPLGDNFTLTDSNGNTITEADIRSKPSIIFFGFTMCPESCPTTLTNLDRWLTSLGADADKLGVWFVTVDPERDTPEVLHDYLSNFNHKIVGISGEPEKVHKMVDSFNIVAEKVPGTDGNYTYNHTAAIFLLKKGGKLAGVIPYKIEKNNEELRDNIAIEKLKQLVLNEGHHHHHH", "soluble on expression in E. coli": "soluble"}, {"sequence": "MIRRAPTTLQLSHDDVTSLIDDLNEQKLKQQLNIEKTKYFQGKNGGSLHSNTDFQDTSQNIEDNNNDNDNDIDEDDDMSSYNDKAASVAHTRVLNSLHLSTDSNTAHETSNANDNHNPFYIREE", "soluble on expression in E. coli": "not soluble"}, {"sequence": "MSLKTLLFDVDDTLLDFKLAEKKALHALFEEENVPFTSEVESTYHRINQGLWRSFEEGKITKDVLLDTRFGLLFDAFNREVDSVKMGENYREYLSQGHDLLGNSQRILEKLAPHYDLYIVTNGVAKTQYRRLEDSKLMPYFKDIFVSEEVGYQKPMKEYFDFVFERIPNFSREKTMIIGDSLHSDIQGGQQAKIQTVWLNPTSAPATPTIQPNYTIQQLDELLPILGHEGHHHHHH", "soluble on expression in E. coli": "soluble"}, {"sequence": "MRGSHHHHHHGMTIFEKKPDFTLFLQTLSWEIDDQVGIEVRNELLREVGRGMGTRIMPPPCQTVDKLQIELNALLALIGWGTVTLELLSEDQSLRIVHENLPQVGSAGEPSGTWLAPVLEGLYGRWVTSQAGAFGDYVVTRDVDAEDLNAVPRQTIIMYMRVRSSAT", "soluble on expression in E. coli": "soluble"}, {"sequence": "MSLHEFQTDSKNKHKVDVHIGIYAPFSSHSAFIGRNILAAMEMGSERLQSSDIHYSFYTLDQLPKNKNAGLVLQKFIDTHHINVLVTGGKETGLIAAPIAKKNNLIHFSLTNNTEVADGRNNFIVWSPAYDQAKVLVNELKRQQVHHLGIITANQPSSTALTHSVIKQLQSDSHIDVAASEYFEPGNKDFSRLTNRIKRKNADMYLVMASPEDIKLIQEQMEADKQHVPITSIVERATPEVVKVFEGQWYVDSHEMQPDFINEFKQNYLNYPVTEAGYAFDLFQLLNKSIVMAIRTQGSPTTSQEVVHQLHDIANGTGVMGTMVLDSKGSLFTKSEVKTVKNGEIHTVEGHHHHHH", "soluble on expression in E. coli": "soluble"}, {"sequence": "MGSDKIHHHHHHMSLTPVLDKIDSDVSAATDRLLELLRIPSISTDPAYKADCDAAADWLVKDLNSIGIKAEKRETPGHPMVVGHVGEENTKGPHLLFYGHYDVQPVDPLNLWNTPPFEPQLEETPNGTVIRGRGASDDKGQLMTFVEACRAWQAVHGTLPCRITFFFEGEEESGSPSLIPFLEAAKEELSADIALICDTSMVARGVPLVASQLRGMMKDEFTLIGPKIDLHSGHYGGPGLNPLREISHIIASFHDPDTGAVAVEGFYEGVPEVPADILRQWEGCGFDEKDYLSNAGYTEAHGEKKYSTLEQQWARPTLEINGLWGGYQGAGTKTVIPSEAHCKITCRLVGDMDPADLRQKIRKHVEDRLPTDCTVKWDLDLDGAPAYVIDTTRPEFEAARGALTEEWNREAVFSGMGGSIPVAGYFKSILGMDAMLIGFANEDDAIHSPNEKYDLESFHKGIRSWARVLDALSKA", "soluble on expression in E. coli": "not soluble"}, {"sequence": "MSVSKKLFSTAVRGKSWWSHVEMGPPDAILGVTEAFKADSNPKKINLGVGAYRDDQGKPFVLPSVKEAERQVIAANLDKEYAGIVGLPEFTKLSAQLALGENSDVIKNKRIFTTQSISGTGALRIGSEFLSKYAKTKVIYQPTPTWGNHVPIFKFAGVDVKQYRYYDKSTCGFDETGALADIAQIPEGSTILLHACAHNPTGVDPSRDQWKKISDIVKKRNLFVFFDMAYQGFASGDVDNDAFAVRYFVEQGHNIVLSQSFAKNMGLYGERVGAFSVVTSDADEAARVASQVKILIRPLYSNPPVHGARIASRILADPALNKQWLGDVKLMADRIITMRTTLKDLLAKEGSTRNWEHITNQIGMFCFTGINPQQVEKLIKEHSVYLTKDGRISVAGISSNNVAYLAHALHQVTK", "soluble on expression in E. coli": "not soluble"}, {"sequence": "MGSDKIHHHHHHMNTYIKILLGTCCSFSILSCSNNLDETVYSKVTEQTYNYTVDDFTPSIASVYSYLRSQSDHWGYFCAQEVSADAIVMPPNASGWDDGGAYRRMHYQTWNSEQDHVKNIWSWFYQGALLCNKIIEQIKTGVIPTPSDTEKTQGLAELRAMRAYYYWQICDNFGDAPLVTTTAMDLPAKNTRREIFDFVENELIEVIPNLSEEVGGNYYGRMTKWAAKALLANLYLNAQVYINEARWNDCITQCDDIINSGKFTLAENYKDLFRALGVESCKEIIFTIPYDENFATGNSIFMFSWHGELKKKYNTIDTPWGCGSAMGVTQFIDTYNEKDSRLADTWLMGQQLAADGTPLYGTYDKMGEPLIYTKDIPSGNYTSELEGYRMNKFEVAENSYSSSNTDIPVFRYAEIMMMKAECLLRTGKSGAGTLVTQVRQRAFKDNPELATVTDSQLAGNTCYQYGYVEDYKIVDRGNTDPIQFGRMYDELGWEFAWEMHRRRDAIRFGIYTTKSWLSHKPEGDYRSVFPIPETVLTSNPNLEQNPNYL", "soluble on expression in E. coli": "not soluble"}, {"sequence": "MGSDKIHHHHHHMRISLSTGTLFTFPLGKVMAIARDAGFDGVELIVNQDFQKVNCRTLIRELAEILPIHSMHAPFMPLDGWGSSIDSLKRCVELSADCGVQLVNFHPPSWMGFELGFWRWLYRVMDFQKEVGQGGVIVTLENMPWVGKRVRMNPHILSSTTKFIDFIQERNLFMTFDTTHMGSGKANFINDFYLCYNSGRIRNIHFSDYGHGREHLLPGHGILPLTRFLNHLRSTGYNDTLTLELSPEEFPRDERIIVESLREILSYLRKETEHPIP", "soluble on expression in E. coli": "not soluble"}, {"sequence": "ESSFTYTLDEKVAELVEFLLLKYEAEEPVTEAEMLMIVIKYKDYFPVILKRAREFMELLFGLALIEVGPDHFCVFANTVGLTDEGSDDEGMPENSLLIIILSVIFIKGNCASEEVIWEVLNAVGVYAGREHFVYGEPRELLTKVWVQGHYLEYREVPHSSPPYYEFLWGPRAHSESIKKKVLEFLAKLNNTVPSSFPSWYKDALKDVEERVQATIDTADD", "soluble on expression in E. coli": "soluble"}, {"sequence": "MSSIVEHVVLFKLNDDDVDSGKINSMVNGINELVNLDQVLHLYCGSIHRLITTTASDFTHVLHSRYRSKEDLNAYAIHPDHVRVVKESESIREDIMAVDWIAEQAPE", "soluble on expression in E. coli": "not soluble"}, {"sequence": "MAHHHHHHMGFWVFDRVADGFLFRGRRQLSRLHQRNAMLDANGMPLTGDLAAEATTWRSQHAFSGRCGLSVKRSPEPHDNRDEARRNGGGDVPHPEKMLPSYECIISRSPNDYRAWAVDFHLQSTSEDPHVLLSVAPYYAPLQSNFVEGGRSWHPPTTEEQEMYDKRMLETPLIWEEPMTLSLDCTNSGMFLWSEEWKIFGEKIADNCFSRRSQSRGGDDSVDQMGGVSGVREGPYEAFVRLSWRMMSAGENDMYGGEKRSLSDASVRNIIVGPCQGEMTVFLRTSSSDQEEGDVSVPRQINGTGNVGAHGGESVSSGVQVWKRAGGRAVLGDDIPNEIYFTPYVTLMDAGDEAILL", "soluble on expression in E. coli": "soluble"}, {"sequence": "MGSDKIHHHHHHENLYFQGMLYHLVMLEPEGEGAMDRIMEAMAILDGLAPELPGLTEFRHGPNRDFEQKSERYPYGFLCTFTDKAALDAYAVHPTHQRAGGMLVASCRNGADGILVVDLEV", "soluble on expression in E. coli": "soluble"}, {"sequence": "MGSDKIHHHHHHMALPVLICDDSAMARKQMARTLPKDWDVDITFATNGAEGLEAIRAGKGEVVFLDLNMPVMDGYEVLQTIQQQDLPALVIVVSGDIQIKAHERVKALGALDFIQKPVSAEAIAGILQEYGILVPGEGEGDEAEDNPLLKVDMRDACQEIANVAMGRAADLLAKLLDVFVVLPIPNVNVLEVSELTMALKATETSAKVTALCQGFIGAGVAGEALLLFHDSSFQDMAKLMKLDGPGDEATEVEVLIDTGNVLIGAFLNGIAEQLDMHFSQAHPVVLGRHCTVNDLIHDNAEKWHRTLAMEINYRIEDHNIECDLLLLFTEDSLPTLNYKLGYMLDTD", "soluble on expression in E. coli": "not soluble"}]}]}
